Assay results from article doi:10.1101/2021.07.09.451512.
Like-named read-outs stand apart in the source and are kept apart here.

Assays:
Assay in all cases: fluorescence polarisation
[1] = target: fluorescein labelled AcrIIC4 (wild type, engineered C-terminal cysteine) (Haemophilus parainfluenzae (prophage))
[2] = target: fluorescein labelled AcrIIC4 (wild type, engineered C-terminal cysteine) (Haemophilus parainfluenzae (prophage)); remark: listed apart in the source
[3] = target: fluorescein labelled AcrIIC4 (wild type, engineered C-terminal cysteine) (Haemophilus parainfluenzae (prophage)); remark: listed apart in the source
[4] = target: fluorescein labelled AcrIIC4 F49A (Haemophilus parainfluenzae (prophage))
[5] = target: fluorescein labelled AcrIIC4 R46A (Haemophilus parainfluenzae (prophage))
[6] = target: fluorescein labelled AcrIIC4 K56A (Haemophilus parainfluenzae (prophage))

B1: Nme1Cas9 (N-terminal 6His-tag) (natural protein)
chain: MAAFKPNSINYILGLDIGIASVGWAMVEIDEEENPIRLIDLGVRVFERAEVPKTGDSLAMARRLARSVRRLTRRRAHRLLRTRRLLKREGVLQAANFDENGLIKSLPNTPWQLRAAALDRKLTPLEWSAVLLHLIKHRGYLSQRKNEGETADKELGALLKGVAGNAHALQTGDFRTPAELALNKFEKESGHIRNQRSDYSHTFSRKDLQAELILLFEKQKEFGNPHVSGGLKEGIETLLMTQRPALSGDAVQKMLGHCTFEPAEPKAAKNTYTAERFIWLTKLNNLRILEQGSERPLTDTERATLMDEPYRKSKLTYAQARKLLGLEDTAFFKGLRYGKDNAEASTLMEMKAYHAISRALEKEGLKDKKSPLNLSPELQDEIGTAFSLFKTDEDITGRLKDRIQPEILEALLKHISFDKFVQISLKALRRIVPLMEQGKRYDEACAEIYGDHYGKKNTEEKIYLPPIPADEIRNPVVLRALSQARKVINGVVRRYGSPARIHIETAREVGKSFKDRKEIEKRQEENRKDREKAAAKFREYFPNFVGEPKSKDILKLRLYEQQHGKCLYSGKEINLGRLNEKGYVEIDHALPFSRTWDDSFNNKVLVLGSENQNKGNQTPYEYFNGKDNSREWQEFKARVETSRFPRSKKQRILLQKFDEDGFKERNLNDTRYVNRFLCQFVADRMRLTGKGKKRVFASNGQITNLLRGFWGLRKVRAENDRHHALDAVVVACSTVAMQQKITRFVRYKEMNAFDGKTIDKETGEVLHQKTHFPQPWEFFAQEVMIRVFGKPDGKPEFEEADTLEKLRTLLAEKLSSRPEAVHEYVTPLFVSRAPNRKMSGQGHMETVKSAKRLDEGVSVLRVPLTQLKLKDLEKMVNREREPKLYEALKARLEAHKDDPAKAFAEPFYKYDKAGNRTQQVKAVRVEQVQKTGVWVRNHNGIADNATMVRVDVFEKGDKYYLVPIYSWQVAKGILPDRAVVQGKDEEDWQLIDDSFNFKFSLHPNDLVEVITKKARMFGYFASCHRGTGNINIRIHDLDHKIGKNGILEGIGVKTALSFQKYQIDELGKEIRPCRLKKRPPVR
Binder B1 has a Kd [1] of 10.2 nM, a Kd [2] of 7.1 nM and a Kd [3] of 6.6 nM. For the same binder, the Kd [4] was 15.3 nM, the Kd [5] was greater than 2500 nM and the Kd [6] was 1.4 nM.
